Test results as given in the nanobody polyreactivity screen of Harvey et al. (2022).

Assay: yeast display, Sf9 membrane polyspecificity reagent, FACS + sequencing; frameworks hold sequencing errors
How it was run: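 Galactose-induced (36–48 hours) yeast carrying a synthetic nanobody display library were exposed to 10% biotinylated, detergent-solubilized Sf9 membrane reagent at 4 °C for 1 hour. FACS followed streptavidin microbead enrichment, using low and high (top ~1%) gates for expression (anti-HA) and reagent binding (streptavidin). Colony PCR, MiSeq 2 × 250 sequencing and CDR-length filtering followed. Labels for polyreactivity reflect the gate of origin.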

Sequence	polyreactivity (PSR sort gate)
QVQLVESGGGLVQAGGSLRLSCAASGLTFYCYAMGWYRQAPGKERELVAAITSGDSTYYADSVKGRFTISRDNAKNTVYLQMNSLKPEDTAVYYCAAVGGYPRYGYWGQGTQVTVSS	high polyreactivity
QVQLVESGGGLVQAGGSLRLSCAASGSTFETYAMGWYRQAPGKERELVAVITSDGSTNYADSVKGRFTISRDNAKNTVYLQMNSLKPEDTAVYYCNADYGFYVPGYPIYWIYEYWGQGTQVTVSS	low polyreactivity
QVQLGESGGGLVQAGGSLRLSCAASGFTFYRYTLGWYRQAPGKERELVASITRRGGSTYYADSVKGRFTISRDNAKNYVYLQMNSLKPEDTAVYDCNAATPVWQSGTYEYWGQGTQVTVSS	high polyreactivity
QVQLVESGGGLLQAGGSLRLSCAASGNTFVKYTMGWYRQAPGKERELVAAITWSGGSTSYADSVKGRFTISRDNAKNTVYLQMNSLKPEDTAVYYCAAAWSHSRWDTHDYWGQGTQVTVSS	low polyreactivity
QVQLVEAGGGLVQAGGSLRLSCAASGSTFRRYAMGWYRQAPGKERVLVAAITTRGGSTYYADSVKGRFTISRDNAKNTVYLQMNSLKPEDTAVYYCARDYSTYLRTAGDYWGQGTQVTVSS	low polyreactivity
QVQLVESGGGLVQAGGRLRISCAASGSIFKGYARGWSRQGPGKERELVAAISGSGTSTYYADSVKGRFTISRDNAKNTVYLQMNSLTPEDTAVYYCATGWYTVFSRRMYSWGQGTQVTVSS	high polyreactivity
QVQLVESGGGLVQAGGRLRLSCAASGITFRYYAMGWYRQAPGKERELVAAITRSGTSTYYADSVKGRFTISRDNAKNTVYLQMNSLKPEDTAVYYCNAEYYHSSTGDDFDYWGQGTQVTVSS	low polyreactivity
QVQLVESGGGLVQAGGSLRLSCAASGSIFNYNMGWYRQAPGKERELVAAITSSGGSTYYADSVKGRFTISRDNAKNTVYLQMNSLKPEDTAVYYCAAPISRSAGWDSYDYWGQGTQVTVSS	low polyreactivity
QVQLVESGGGLVQAGGSLRLSCAASGITFGYYAMGWYRQAPGKERELVAAISNSGRTYYADSVKGRFTISRDNAKNTVYLQMNILKPEDTAVYYCAAEDAYYDFYYWGQGTKVTVSS	low polyreactivity
QVQLVESGGGLVQAGGSLRLSCAASGFIFRPYTMGWYRQAPGKERELVAAITSGGSTYYADSVKGRFTISRDNAKNTVYLQMNSLKPEDTAVYYCAARYQLYRRGYDYWGQGTQVTVSS	high polyreactivity
QVQLVESPGGLVKAGGSLRLSCDASGRTFYGYAMGWYRQPPGKEREFVAAITWSGSSTNYADSVKGRFTISRDNATNSVYLQMNSLKPDDTAVYYCAASYYAPYWSMDNWGQGTQETVSS	high polyreactivity
QVQLVESGGGLVQARGSLRLSCAASGSIFYYNTMGSDRQAPGKEREFVAAITYSGGSTYYSDSVKGRFTISRDKAKKTVYLLMNSLKPEDTAVYYCAAYIFYFSGGLNNRGTRGYWGQGTQVTVSS	low polyreactivity
QVQLVESGGGLVQAGGSLRLSCAASGGNFYLYAMGWYIQAPGKEREFVAAISSSGGSTNYADSVKGRFTFSRDNAKNTVYLQMNSLKAEDTAVYYCAARWLAFLDLGKTYEYWGQGTHVTVSS	high polyreactivity
QVHLVESGGGLVQAGGSLRLSCAASGFIFDFNTMGWYRQAPGKETEFVAAISGSGGRTYYADSVKGRFTISRDNAKNTVYLQMNSLKPEDTAVYYCAAYKRYYYGYDYWGQGTQVTVSS	high polyreactivity
QVQLVESVGGLVQAGGRLRLSSAASGFTFAFHAMGSYRQAPGKERELVAAISCSGVSTYYADSVKWRFTLSRDNEKNTDYLQMNSLKPEDTAVKYCAVGAVASSHRAGGKRHEYWGQGTQVTLSS	low polyreactivity
QVQLVESGGGLVQAGGSLRLSCAASGSTFTVNAMGWYRQAPGKERELVAAISWRGGTTYYADSVKGRFTISRDNAKNTVYLQMNSLKPEDTAVYYCAATSYRRSGRYYYWGQGTQVTVSS	high polyreactivity
QVQLVESGGGLVQAGGSLRLSCAASGSTFDGYTMGWYRQAPGKERELVAAISWRGTSTYYADSVKGRFTISRYIAKNTVYLQMNSLKPEDTAVYYCAADAYSGYDYWGQGTQVTVSS	low polyreactivity
QVQLVESGGGLVQAGGSLRLSCAASGSIFYWYAMGWYRPAPGKERELVAAISYSGGSTYADSVKGRFTISRDNAKNTVYLQMNSLKPEDTAVYYCAVGYYRFGRFLGYYWGQGTQVTVSS	high polyreactivity
QVQLVESGGGLVQAGGSLRLSCAASGRTFYGYAMGWSRPAPGKERELVAAISTGGSTSYADSVKGRFTISRDNAKNTVYLQMNSLKPEDTAVYYCAAVYYLTDWYGVWYSFDYWGQGTQVTVSS	low polyreactivity
QVQLVESGAALVQAGGSLRLSCAASGFIIAVYAMGWYRQAPGKERELVAAITRSGGSTYYADSVKGRFTISRDNAKNTFYLQMNSLKPEDSAVYYCAARNTQPASYGYGYWGLGTQVTVSS	high polyreactivity
QVQLVESGGGLVQAGGSLRLSCAASGFTFAYYAMGWYRQAPGTERELVAAITYSGGSTYYADSVKGRFTISRDNAKNTVYLQMNSLKPEDTAVYYCNAYDRRYYYGRWYGEFDYWGQGTQVTVSS	low polyreactivity
QVQLVESGGGLVQAGGSLRLSCAASGITFSGNAMGWYRQAPGKERELVATISQSGGSTYYADSVKGRFTISRDNAKNTVYLQMNSLKPEDTAVYYCNVNLQGRYSDKYDYWGQGTQVTVSS	high polyreactivity

Sequence	polyreactivity (PSR sort gate)
QVKLVESGGGLVQAGGSLRLSSAASGSTFEYNAMGWYRQAPGKERELVASSTNYADSVKGRFTISRDNAKNTVYLQMTSRKPEDTAVYYCAREQGVNRNHDYWGQGTQVTVSS	low polyreactivity
QVQLVESGGGLVQAGGSLRLSCAASGSIFLYNAMGWYRQAPGKERELVADITTTGGSTYYADSVKGRFTISRDNAKNTVYLQMNSLKPEDTAVYYCNVDYWGQGTQVTVSS	low polyreactivity
QVQLVESGGGLVQAGGSLRLSCAASGRTFGGNAMGWYRQAPGKEREYVAAISRSGTSTYYADSVKGRFTISRDNAKNTVYLQMNSLKPEDTGVYYCAALNYHKFAHKSDYWGQGTQVTVSS	low polyreactivity
QVQLVESGGGLVQAGGSLRLSCAASGRTFAYYAMGWYRQAPGKERELVAAISTSGTRTYYADSVKGRFTISRDNAKNTVYLQMNSLKPEDTAVYYCAARYRYQYEFDYWGQGTQVTVSS	high polyreactivity
QVQLVESGVGLVQAGGSLRLSCASSGSIFAYNTMGWYRQAPGKEREFVAAISWLGGSTYYADSVKGRFTISRDNAKNTVYLQMNSLKPEDTAVYYCNARYRTTFYTRRYDYWGQGTQVTVSS	low polyreactivity
QVQLVESGGGLVQAGGSLRLSCAASGRTFRFYAMGWYRPAPGKERELVAGITRSGGGTYYADSVKGRFTISRDNAKNTVYLQMNSLKPEDTAVYYCAATHAYLGYGYWGQGTQVTVSS	high polyreactivity
QVQRVESGGGLVQAGGSLRLSCAASGFIFTSNARGWYRPAPGKERELVAASTKSGGSTYYADSVKGRFTISRDNAKNTVYLQMNSLKPEDTAVYYCAAYPTSRYKYEYWGQGTQVTVSS	high polyreactivity
QVQLVESGGGLVLAGGSLRLSCAASGSIFKNYAMGWYGQAPGKVRELVAAITRGTYYADSVKGRFTISRDNAKNTVYLQMNSLKPEDTAVYYCNREYWGRGYYRVRGEYDYWGQGTQVTVSS	low polyreactivity
QVQLVESGGGLVQAGGSLRLSCAASGSTFVGNAMGWYRQEPGKERELVATISNSGGRTYYADSVKGRLTISRDNAKYTVYLQMNSLKPEDTAVYYCAADHPDFGPGYSFDYWGQGTQVTVSS	low polyreactivity
QVQLVESGGGLVQAGGSLRLSCAASGRIFQWNAMGWYRQAPGKERELVAAITYSGSSTNYADSVKGRFTISRDNAKNTVYLQMNSLKPEDTAVFYCNRDFYQYLSYFWHYGYWGQGTQVTVSS	low polyreactivity
QVQLVESGGGLVQAGGSLRLSCAASGSIFKAYAMGWYRQAPGKERELVAAISTSDGSTYYADSVKGRFTISRDNAKNNVYLLMNSLKPEDTAVYYCATEYDYWDDSYDYWGQGTQVTVSS	low polyreactivity
QVQLVETGGGLVQAGGSLRLSCAASGSIADVYAMGWYRQAPGKERELVAAITSGASTYYADSVKGRFTISRDNAKNTVYLQMNSLKPEDTAVYYCTKSAAITGNGHMDYWGQGTQVTVSS	low polyreactivity
QVQLVESGGGLVQAGGSLRLSCAASGFIFDINAIGWYRQAPGKERELVAAISYSGGSTYYADSVKGRFTISRDNAKNTVYLQMNSLKPEDTAVYYCAADSGPDSDEGDYWGQGTQVTVSS	low polyreactivity
QVQLVESGGGLVQAGGSLRLSCAASGFIFYYYAMGWYRPAPGKERELVAAISGESTSTYYADSVKGRFTISRDNAKNTVYLQMNSLKPEDTALYYCAADLYHWDGYEYWGQGTQVTVST	high polyreactivity
QVKLVESGGGLVQAGGSLRLSCAASGFTFSRNTRGWYRQAPGKERELVAAIDSTGGSTYYADSEKGRFTISRDNAKNTVYLQMNCLNPEDTAVYYCATVLPDGRVRLRILWGKRVWYDYWGQGTHVTVSS	low polyreactivity
QVQLVESGGGLVQAGGSLRLSCAASGFIFGYYAMGWYRQAPGKERELVAAISGDAGRTYYADSVKGRFTISRDNAKNTVYLQMNSLKPEDTAVYYCAAADTYKMDYWGQGTQVTVSS	low polyreactivity
QVQLVESGGGLVQAGGSLRLSCAASGITFYGYAMGWYRQAPGKERELVATISSGGGTNYADSVKGRFTISRDNAKNTVYLQMNSLKPEDTAVYYCATDLSTVDYNYWGQGTQVTVSS	low polyreactivity
QVQLVESGGGLVQAGGSLRLSCAASGRTFGRYAMGWYRQAPGKERELVAAITRGGGSTYYADSVKGRFTISRDNAKYTVYLQMNSLKPEDTAVYYCAARNFRSPYGYDYWGQGTQVTVSS	high polyreactivity
QVQLVESGGGLVQAGGSLRLSCAASGGIFRGYTMGWYRQAPGKERELVAAISKGGGSTYYADSVKGRFTISRDIAKNTVYLQMNSLKPEDTAVYYCAARHVYPLLDYWGQGTQVTVSS	high polyreactivity
QVQLVESGGGLVQAGGSLRLSCSASGITFKLNSMGWYRQAPGKERELVAAITSTGGSTYYADSVKGRFTISRDNAKNTVYLQMNSLKPEDTAVYYCATDILIDGFYSDYWGQGTQVTVSS	high polyreactivity
QVQLVESGGGLVQAGGSLRLSCAASGRTFVVNVMGWYRQAPGKERELVAAISSVVSTNYADSVKGRFTISRDNAKNTVYLQMNCLKPEDTAVYYCAADVRGAYSTYLYTTTIRYDYWGQGTQVTVSS	low polyreactivity
